Test results: patent US20150110766A1 (UNIVERSITY ULM, published 2015)

Tests used:
iC3b = target: T1, iC3b (UniProt P01024 23-667; P01024 749-1303; P01024 1321-1663); experiment: SPR (Biacore 2000), analyte over iC3b surface on CM5 chip
T1 construct: Made on the chip from deposited C3b with FI and the cofactor FH
Protocol: (§1) C3-fragment binding. Equal amounts of C3b (˜4000 RUs) (from Complement Technology, Tyler, Tex., USA) were immobilized onto 3 flow-cells (fc) of a CM5 chip (Biacore) by initial amine-coupling of a small amount of C3b onto fc 2-4 and further deposition of the vast majority of C3b molecules via its reactive thioester through an on-chip assembly of the AP-convertase (C3bBb) and subsequent exposure to and proteolytic activation of C3 (24). The surface was washed overnight with a buffer flow of 10 ul/min to allow stabilization of the physiologically prepared C3b-surface. […] C3b molecules on fc3 and fc4 were processed with FI in the presence of the cofactors FH or soluble complement receptor 1 (sCR1) to yield iC3b or C3dg (the latter as described in Morgan et al., 2011, supra), respectively. A dummy surface (fc1) was prepared by two consecutive cycles of surface activation with standard amine coupling reagents and quenching by ethanolamine.
(§2) Due to the physiological deposition of C3b and subsequent trimming with FI, both, the iC3b and the C3dg, surfaces likely carry miniscule amounts of residual C3b molecules, which were not readily accessible by FI. […] Deposition, proteolytic processing and all interactions studies were performed in HBS-P+buffer (i.e. 10 mM HEPES-buffered 150 mM saline (pH7.4), 0.005% (v/v) surfactant p20, 1 mM MgCl₂) at 25° C.

C3b = target: T2, C3b (UniProt P01024 749-1663; P01024 23-667); experiment: SPR (Biacore 2000), analyte over C3b deposited on CM5 chip
T2 construct: Immobilised on a CM5 chip; A small amount was amine-coupled and the majority deposited via the reactive thioester by on-chip AP convertase; also called complement fragment C3b; deposited C3b
T2 sequence (P01024 749-1663 limits assumed, chain 1 of 2): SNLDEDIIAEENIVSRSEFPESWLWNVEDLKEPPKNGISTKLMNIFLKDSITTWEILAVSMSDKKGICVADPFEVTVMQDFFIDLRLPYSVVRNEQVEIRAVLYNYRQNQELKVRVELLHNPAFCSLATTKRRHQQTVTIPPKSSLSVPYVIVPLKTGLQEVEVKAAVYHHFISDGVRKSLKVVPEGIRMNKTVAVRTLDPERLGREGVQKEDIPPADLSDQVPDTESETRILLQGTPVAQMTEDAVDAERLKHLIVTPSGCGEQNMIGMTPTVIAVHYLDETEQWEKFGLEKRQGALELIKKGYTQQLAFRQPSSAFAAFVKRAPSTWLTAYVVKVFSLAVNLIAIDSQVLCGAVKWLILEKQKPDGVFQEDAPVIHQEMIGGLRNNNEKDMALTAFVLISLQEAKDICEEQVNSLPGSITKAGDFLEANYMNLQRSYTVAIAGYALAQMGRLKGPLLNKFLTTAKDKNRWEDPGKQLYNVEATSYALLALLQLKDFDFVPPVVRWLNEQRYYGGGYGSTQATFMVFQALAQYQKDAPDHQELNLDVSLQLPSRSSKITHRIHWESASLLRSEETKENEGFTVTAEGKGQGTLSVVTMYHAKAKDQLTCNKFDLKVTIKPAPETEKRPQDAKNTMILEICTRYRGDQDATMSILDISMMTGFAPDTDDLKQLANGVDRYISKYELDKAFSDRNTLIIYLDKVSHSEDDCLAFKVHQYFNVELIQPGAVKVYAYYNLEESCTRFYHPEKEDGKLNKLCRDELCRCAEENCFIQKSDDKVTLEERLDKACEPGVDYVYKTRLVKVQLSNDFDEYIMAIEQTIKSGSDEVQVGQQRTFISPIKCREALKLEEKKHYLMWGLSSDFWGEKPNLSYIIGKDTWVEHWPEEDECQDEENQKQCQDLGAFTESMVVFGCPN
T2 sequence (P01024 23-667 limits assumed, chain 2 of 2): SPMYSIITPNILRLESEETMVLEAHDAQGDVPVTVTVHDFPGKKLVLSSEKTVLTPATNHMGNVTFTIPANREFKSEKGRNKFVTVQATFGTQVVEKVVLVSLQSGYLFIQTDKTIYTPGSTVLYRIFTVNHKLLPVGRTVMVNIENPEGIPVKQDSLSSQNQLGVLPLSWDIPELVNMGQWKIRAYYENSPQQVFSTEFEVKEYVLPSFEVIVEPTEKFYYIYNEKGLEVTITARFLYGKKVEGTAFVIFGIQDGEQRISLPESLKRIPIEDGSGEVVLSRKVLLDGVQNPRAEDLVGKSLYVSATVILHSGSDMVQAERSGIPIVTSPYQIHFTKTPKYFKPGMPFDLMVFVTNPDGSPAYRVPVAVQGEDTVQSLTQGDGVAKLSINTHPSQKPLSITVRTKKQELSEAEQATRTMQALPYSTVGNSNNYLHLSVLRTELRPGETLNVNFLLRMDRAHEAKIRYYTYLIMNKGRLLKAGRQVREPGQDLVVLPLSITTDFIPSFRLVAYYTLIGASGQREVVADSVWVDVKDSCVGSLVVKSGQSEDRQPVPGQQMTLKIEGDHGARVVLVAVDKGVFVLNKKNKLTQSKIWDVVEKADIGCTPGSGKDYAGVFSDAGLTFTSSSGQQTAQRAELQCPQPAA
Protocol: as §1, §2

C3dg = target: T3, C3dg (UniProt P01024 955-1303); experiment: SPR (Biacore 2000), analyte over C3dg surface on CM5 chip
T3 construct: Made on the chip from deposited C3b with FI and the cofactor sCR1
T3 sequence (P01024 955-1303 limits assumed): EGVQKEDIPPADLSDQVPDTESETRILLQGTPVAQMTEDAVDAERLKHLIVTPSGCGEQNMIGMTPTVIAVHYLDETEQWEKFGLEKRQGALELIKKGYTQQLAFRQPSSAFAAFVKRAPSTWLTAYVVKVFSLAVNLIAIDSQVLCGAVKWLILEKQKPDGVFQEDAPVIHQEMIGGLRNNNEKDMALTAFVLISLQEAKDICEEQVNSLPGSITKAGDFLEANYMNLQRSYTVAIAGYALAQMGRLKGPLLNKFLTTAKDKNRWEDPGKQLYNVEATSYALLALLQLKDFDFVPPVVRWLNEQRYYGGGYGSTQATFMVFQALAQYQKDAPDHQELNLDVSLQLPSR
Protocol: as §1, §2

Measured: binding result

T1 sequence (P01024 23-667, chain 1 of 3): as the sequence (P01024 23-667 limits assumed, chain 2 of 2) above
T1 sequence (P01024 749-1303, chain 2 of 3): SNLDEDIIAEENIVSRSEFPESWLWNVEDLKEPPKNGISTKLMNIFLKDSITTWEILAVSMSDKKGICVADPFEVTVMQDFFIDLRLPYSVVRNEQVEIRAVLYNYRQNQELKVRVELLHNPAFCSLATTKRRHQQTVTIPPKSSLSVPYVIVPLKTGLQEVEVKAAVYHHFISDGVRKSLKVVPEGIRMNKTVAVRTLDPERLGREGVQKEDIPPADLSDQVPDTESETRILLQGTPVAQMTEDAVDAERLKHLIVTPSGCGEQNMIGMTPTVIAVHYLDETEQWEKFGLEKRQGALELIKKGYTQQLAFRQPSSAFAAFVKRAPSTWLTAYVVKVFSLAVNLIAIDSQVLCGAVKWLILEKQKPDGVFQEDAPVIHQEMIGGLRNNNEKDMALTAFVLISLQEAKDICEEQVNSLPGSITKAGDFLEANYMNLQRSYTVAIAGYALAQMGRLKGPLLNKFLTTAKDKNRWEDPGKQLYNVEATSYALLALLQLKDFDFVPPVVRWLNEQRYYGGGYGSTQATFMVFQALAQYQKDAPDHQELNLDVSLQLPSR
T1 sequence (P01024 1321-1663, chain 3 of 3): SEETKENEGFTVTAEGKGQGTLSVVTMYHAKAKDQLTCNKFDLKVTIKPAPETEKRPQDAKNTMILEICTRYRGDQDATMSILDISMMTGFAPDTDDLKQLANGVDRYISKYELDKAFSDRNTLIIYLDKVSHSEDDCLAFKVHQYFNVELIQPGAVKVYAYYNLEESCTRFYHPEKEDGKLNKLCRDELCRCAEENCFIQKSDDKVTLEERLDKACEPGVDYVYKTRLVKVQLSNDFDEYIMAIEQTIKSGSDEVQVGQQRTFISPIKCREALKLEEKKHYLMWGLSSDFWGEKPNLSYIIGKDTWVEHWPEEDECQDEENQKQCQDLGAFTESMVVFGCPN

B1: FH15-18 (other, UniProt P08603 868-1104, looked up)
chain: IPCSQPPQIEHGTINSSRSSQESYAHGTKLSYTCEGGFRISEENETTCYMGKWSSPPQCEGLPCKSPPEISHGVVAHMSDSYQYGEEVTYKCFEGFGIDGPAIAKCLGEKWSHPPSCIKTDCLSLPSFENAIPMGEKKDVYKAGEQVTYTCATYYKMDGASNVTCINSRWTGRPTCRDTSCVNPPTVQNAYIVSRQMSKYPSGERVRYQCRSPYEMFGDEEVMCLNGNWTEPPQCKD
notes: domain: CCPs 15-18; Negative control analyte in SPR
no binding: all assays above
